The record followed here is patent publication US6046310, “FAS ligand fusion proteins and their uses” (Protein Design Labs., Inc., dated 2000).

Positions count from the first letter of the chain named. Names and notes keep the numbering of the source.

Test [1] addresses T1, Fas on the cell surface of human cell lines (MOLT-4, CESS, T47D) (human, UniProt P25445). The experiment in a line: cell-based or functional assay.
The target of test [2] is T1, Fas on the cell surface of human cell …. Description: flow cytometry on MOLT-4 cells (express Fas but not the antigen for HuABL364), anti-human IgG FITC. Here is the method: MOLT-4, a human T lymphocyte line that expresses Fas on the cell surface (B. Trauth et al., *Science*, 245:301, 1989, incorporated herein by reference) but not the antigen for HuABL364, was stained by incubation with protein G-purified HuABL364 lg-FasL followed by incubation with an anti-human IgG FITC reagent (Jackson Immunoresearch, #715-096-151). Positive staining by HuABL364 Ig-FasL was detected by flow cytometry, compared to negative staining with the HuABL364 antibody.
A general note: A flow cytometer gives signals particle by particle.

B1: HuABL364 Ig-FasL5 (other)
heavy (part 1 of 2): EVQLLESGGGLVQPGGSLRLSCAASGFTFSDYYMYWVRQAPEKRLEWVAYISNGGGSSHYVDSVKGRFTISRDNAKNTLYLQMNSLRAEDTALYHCARGMDYGAWFAYWGQGTLVTVSS
heavy (part 2 of 2): GTGHPSPPPEKKELRKVAHLTGKSNSRSMPLEWEDTYGIVLLSGVKYKKGGLVINETGLYFVYSKVYFRGQSCNNLPLSHKVYMRNSKYPQDLVMMEGKMMSYCTTGQMWARSSYLGAVFNLTSADHLYVNVSELSLVNFEESQTFFGLYKL
light: DIVMTQSPLSLPVTPGEPASISCRSSQSIVHSNGNTYLEWYLQKPGQSPQLLISKVSNRFSGVPDRFSGSGSGTDFTLKISRVEAEDVGVYYCFQGSHVPFTFGQGTKLEIK
B1: in test [1], the “% apoptotic cells, CESS” value amounted to 88 % apoptotic cells and the “% apoptotic cells, T47D” value was found to be 91 % apoptotic cells.

B2: HuABL364 Ig-FasL5 M229A (other)
heavy (part 1 of 2): B1 heavy (part 1 of 2)
heavy (part 2 of 2): B1 heavy (part 2 of 2) with M100A
light: B1 light
For B2, in test [1], the “% apoptotic cells, CESS” value came out at 90 % apoptotic cells and the “% apoptotic cells, T47D” value is 95 % apoptotic cells.

B3: HuABL364 Ig-FasL5 Y244A (other)
heavy (part 1 of 2): B1 heavy (part 1 of 2)
heavy (part 2 of 2): B1 heavy (part 2 of 2) with Y115A
light: B1 light
With B3, in test [1], the “% apoptotic cells, CESS” value is 24 % apoptotic cells and the “% apoptotic cells, T47D” value is 16 % apoptotic cells.

B4: HuABL364 Ig-FasL5 Y189A (other)
heavy (part 1 of 2): B1 heavy (part 1 of 2)
heavy (part 2 of 2): B1 heavy (part 2 of 2) with Y60A
light: B1 light
As to B4, in test [1], the “% apoptotic cells, CESS” value amounted to 24 % apoptotic cells and the “% apoptotic cells, T47D” value turned out to be 11 % apoptotic cells.

B5: HuABL364 Ig-FasL5 Y192A (other)
heavy (part 1 of 2): B1 heavy (part 1 of 2)
heavy (part 2 of 2): B1 heavy (part 2 of 2) with Y63A
light: B1 light
For B5, in test [1], the “% apoptotic cells, CESS” value was 25 % apoptotic cells and the “% apoptotic cells, T47D” value is 10 % apoptotic cells.

B6: HuABL364 antibody (antibody, V domains shown)
VH: B1 heavy (part 1 of 2)
VL: B1 light
With B6, the binding result in test [2] is on record as “no binding”.

B7: HuABL364 Ig-FasL5 L170A (other)
heavy (part 1 of 2): B1 heavy (part 1 of 2)
heavy (part 2 of 2): B1 heavy (part 2 of 2) with L41A
light: B1 light
In the case of B7, in test [1], the “% apoptotic cells, CESS” value amounted to 87 % apoptotic cells and the “% apoptotic cells, T47D” value was determined as 98 % apoptotic cells.

B8: HuABL364 Ig-FasL5 V248A (other)
heavy (part 1 of 2): B1 heavy (part 1 of 2)
heavy (part 2 of 2): B1 heavy (part 2 of 2) with V119A
light: B1 light
Take B8: in test [1], the “% apoptotic cells, CESS” value amounted to 87 % apoptotic cells and the “% apoptotic cells, T47D” value amounted to 95 % apoptotic cells.

B9: HuABL364 Ig-FasL5 I168A (other)
heavy (part 1 of 2): B1 heavy (part 1 of 2)
heavy (part 2 of 2): B1 heavy (part 2 of 2) with I39A
light: B1 light
As for B9, in test [1], the “% apoptotic cells, CESS” value is 81 % apoptotic cells and the “% apoptotic cells, T47D” value was determined as 91 % apoptotic cells.

B10: HuABL364 Ig-FasL5 H148S (other)
heavy (part 1 of 2): B1 heavy (part 1 of 2)
heavy (part 2 of 2): B1 heavy (part 2 of 2) with H19S
light: B1 light
As for B10, in test [1], the “% apoptotic cells, CESS” value was determined as 26 % apoptotic cells and the “% apoptotic cells, T47D” value is 15 % apoptotic cells.

B11: HuABL364 Ig-FasL5 Y232A (other)
heavy (part 1 of 2): B1 heavy (part 1 of 2)
heavy (part 2 of 2): B1 heavy (part 2 of 2) with Y103A
light: B1 light
Regarding B11, in test [1], the “% apoptotic cells, CESS” value was 32 % apoptotic cells and the “% apoptotic cells, T47D” value stood at 88 % apoptotic cells.
